B1: hIL-6Rα on hIL-6Rα-transfected HEK293T cells (receptor)
chain: LAPRRCPAQEVARGVLTSLPGDSVTLTCPGVEPEDNATVHWVLRKPAAGSHPSRWAGMGRRLLLRSVQLHDSGNYSCYRAGRPAGTVHLLVDVPPEEPQLSCFRKSPLSNVVCEWGPRSTPSLTTKAVLLVRKFQNSPAEDFQEPCQYSQESQKFSCQLAVPEGDSSFYIVSMCVASSVGSKFSKTQTFQGCGILQPDPPANITVTAVARNPRWLSVTWQDPHSWNSSFYRLRFELRYRAERSKTFTTWMVKDLQHHCVIHDAWSGLRHVVQLRAQEEFGQGEWSEWSPEAMGTPWTESRSPPAENEVSTPMQALTTNKDDDNILFRDSANATSLPVQDSSSVPLPTFLVAGGSLAFGTLLCIAIVLRFKKTWKLRALKEGKTSMHPPYSLGQLVPERPRPTPVLVPLISPPVSPSSLGSDNTSSHNRPDARDPRSPYDISNTDYFFPR
- Kd (NEF172): 10.9 nM
- Kd (NEF108): 5.3 nM
- Kd (NEF163): 3.5 nM
